{
  "source": "patent US20220193132A1",
  "about": "(NATIONAL RESEARCH COUNCIL OF CANADA, published 2022)",
  "binders": {"B1": {"name": "F263-4E11 (antibody, V domains shown)", "VH": "DVQLQESGPGLVKPSQSLSLTCTVTGYSITSDYAWNWIRQFPGNKLEWMGYIGYNGRTSYNPSLKSRISITRDTSKNQFFLQLNYVTTEDTATFYCARLGRGFAYWGQGTLVTVSA", "VL": "DILMTQSPSSMSVSLGDTVSITCHASQGINSNIGWLLQKPGKSFKGLIYHGTNLEDGVPSRFSGSGSGTDYSLTISSLESEDFADYYCVQYAQFPYTFGGGTKLEIK", "notes": "Mouse hybridoma mAb"}},
  "key": {"[1]": {"target": "T1, EGFRvIII amino acid residues 15 to 37 with Cys35 to Ala mutation (human)", "T1 construct": "mutation is already in the entry", "T1 peptide": "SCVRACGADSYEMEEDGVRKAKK", "experiment": "yeast display flow cytometry, alanine scan", "description": "(§1) Assessment of the binding of anti-EGFRvIII mAbs to the fusion proteins expressed on yeast cell surface was done by flow cytometry analysis. Briefly, yeast cells were labeled with both the anti-hEGFRvIII mAb and chicken anti-Myc antibody, the latter being used to monitor the level of expression of the fusion protein. Following a wash step, binding of the primary antibodies is probed by a two-color indirect fluorescence labeling using secondary antibodies specific for mouse and chicken antibodies, respectively.\n(§2) To further characterize mAb epitopes within the EGFRvIII 15-37 region, an alanine scan of this region was performed, and modified fragments were expressed at the surface of the yeast. […] The resulting peptides were expressed at the surface of the yeast and each anti-EGFRvIII mAbs was tested on the corresponding yeast mutant strain by flow cytometry analysis. Thus, this assay determined the contribution of each amino acid(s) in the monoclonal antibody binding."}, "[2]": {"target": "T2, EGFRvIII amino acid residues 15 to 37 with Glu26 to Ala mutation (human)", "T2 construct": "mutation is already in the entry", "T2 peptide": "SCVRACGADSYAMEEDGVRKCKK", "experiment": "yeast display flow cytometry, alanine scan", "description": "as §1, §2"}, "[3]": {"target": "T3, EGFRvIII amino acid residues 15 to 37 with Asp30 to Ala mutation (human)", "T3 construct": "mutation is already in the entry", "T3 peptide": "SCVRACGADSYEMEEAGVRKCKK", "experiment": "yeast display flow cytometry, alanine scan", "description": "as §1, §2"}, "[4]": {"target": "T4, EGFRvIII amino acid residues 15 to 37 with Arg33 to Ala mutation (human)", "T4 construct": "mutation is already in the entry", "T4 peptide": "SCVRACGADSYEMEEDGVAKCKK", "experiment": "yeast display flow cytometry, alanine scan", "description": "as §1, §2"}, "[5]": {"target": "T5, EGFRvIII amino acid residues 15 to 37 with Cys20 to Ala mutation (human)", "T5 construct": "mutation is already in the entry", "T5 peptide": "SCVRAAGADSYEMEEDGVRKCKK", "experiment": "yeast display flow cytometry, alanine scan", "description": "as §1, §2"}, "[6]": {"target": "T6, EGFRvIII amino acid residues 15 to 37 with Gly31 to Ala mutation (human)", "T6 construct": "mutation is already in the entry", "T6 peptide": "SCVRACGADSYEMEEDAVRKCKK", "experiment": "yeast display flow cytometry, alanine scan", "description": "as §1, §2"}, "[7]": {"target": "T7, EGFRvIII, full length, overexpressed on glioblastoma cells (human, UniProt P00533 298-623)", "experiment": "cell-based or functional assay"}, "[8]": {"target": "wild type human EGFR, full length, overexpressed on U87MG cells (human, UniProt P00533 25-1210)", "experiment": "cell-based or functional assay"}, "[9]": {"target": "T8, recombinant human EGFRvIII protein (extracellular domain), native (human, UniProt P00533 298-623)", "T8 construct": "also called hEGFRvIII", "experiment": "ELISA Exp 2, purified mAb 1 ug/ml;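 further: ELISA of purified mAb binding to plate-coated antigen, native or heat/DTT-denatured, with pNPP substrate developed for 30 min and incubations at room temperature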", "protocol": "(§3) Pre- and post-immune sera titers of animals were assessed by ELISA on recombinant EGFRvIII protein. Unless otherwise stated, all incubations were performed at room temperature. […] Microplates were washed three times in PBS and blocked for 30 min with PBS containing 1% bovine serum albumin (BSA, Sigma Cat #A7030). Blocking buffer was removed and 25 μl of serial dilutions of sera samples were added. […] After a 1-h incubation, microplates were washed 4 times and 25 μl of p-nitrophenyl phosphate (pNPP) substrate (Sigma-Aldrich Canada Co., Oakville, ON) at 1 mg/ml in carbonate buffer at pH 9.6 was added and further incubated for 30 min.\n(§4) Antigens at 1-2 mg/ml were incubated at 95° C. for 5 min in PBS containing DTT at a final concentration of 40 mM. They were then incubated on ice for 5 min and diluted at their final coating concentration for ELISA purpose.\n(§5) ELISA was performed as described above (serum titer determination) using 25 μl of mAb supernatant (Exp 1) or purified mAb at 1 μg/ml (Exp 2)."}, "[10]": {"target": "T9, recombinant human EGFRvIII protein (extracellular domain), denatured (human, UniProt P00533 298-623)", "T9 construct": "Same protein as m21 after 95 C for 5 min in PBS with 40 mM DTT (denatured, reduced); also called EGFRvIII Denatured", "experiment": "ELISA Exp 2, purified mAb 1 ug/ml", "protocol": "as §3, §4, §5"}, "[11]": {"target": "T10, recombinant human wild type EGFR protein (extracellular domain), native (human, UniProt P00533 25-645)", "T10 construct": "also called wt EGFR; EGFR WT", "experiment": "ELISA Exp 2, purified mAb 1 ug/ml", "protocol": "as §3, §4, §5"}, "[12]": {"target": "T11, recombinant human wild type EGFR protein (extracellular domain), denatured (human, UniProt P00533 25-645)", "T11 construct": "Same protein as m23 after 95 C for 5 min in PBS with 40 mM DTT (denatured, reduced); also called wt EGFR Denatured", "experiment": "ELISA Exp 2, purified mAb 1 ug/ml", "protocol": "as §3, §4, §5"}, "[13]": {"target": "T7, EGFRvIII, full length, overexpressed on …", "experiment": "flow cytometry dose-response on U87MG-EGFRvIII cells, apparent Kd", "protocol": "Prior to analysis, cells were plated such that they were not more than 80% confluent on the day of analysis. Unless otherwise stated, all media are kept are 4° C. and all incubations are performed on wet ice. Cells were washed in PBS, harvested by the addition of cell dissociation buffer (Sigma), centrifuged and resuspended in complete medium at a cell density of 2×10⁶ cells/mL. Fifty μL/well of cells were distributed in a polypropylene v-bottom 96 well plate and serial 1/3 dilutions of purified mAbs starting at 100 nM were added and incubated for 2 hours. […] Cells were washed and re-suspended in medium containing Propidium iodide to exclude dead cells from analysis. Samples were filtered through a 60 μm nylon mesh filter plate (Millipore, Ireland) to remove cell aggregates. Flow cytometry analyses were performed on 2,000 viable single-cells events gated on forward scattering, side scattering parameters and propidium iodide dye exclusion using a BD-LSRFortessa flow cytometer (Becton-Dickinson Biosciences, CA, USA) and a standard filter set using BD FACSDiva™ acquisition software, according to manufacturer's instructions.\nSpecific detection of antibody binding was calculated as the mean fluorescent intensity of binding to each primary antibody after background level subtraction of the mean fluorescent intensity of binding of mouse IgG control. The data were analyzed with GraphPad Prism v 6.0 software using one-site specific binding with Hill slope non-linear regression curve fit model to determine Bmax (maximum specific binding) and Kdₐₚₚ (concentration needed to achieve a half-maximum binding at equilibrium) for each mAb tested."}, "[14]": {"target": "T12, EGFRvIII fragment amino acid residues 19 to 37, displayed on yeast (human)", "T12 construct": "also called aa 19-37", "T12 peptide": "ACGADSYEMEEDGVRKCKK", "experiment": "yeast surface display, flow cytometry", "description": "as §1"}, "[15]": {"target": "T13, EGFRvIII amino acid residues 15 to 37 with Lys36 to Ala mutation (human)", "T13 construct": "mutation is already in the entry", "T13 peptide": "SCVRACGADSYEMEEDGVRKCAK", "experiment": "yeast display flow cytometry, Myc-normalized;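 further: Anti-EGFRvIII monoclonal antibodies tested by flow cytometry on yeast displaying alanine-substituted fragments, two-color indirect fluorescence with anti-Myc signal tracking fusion protein expression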", "description": "as §1, §2"}, "[16]": {"target": "T14, EGFRvIII amino acid residues 15 to 37 with Val32 to Ala mutation (human)", "T14 construct": "mutation is already in the entry", "T14 peptide": "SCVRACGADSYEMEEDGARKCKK", "experiment": "yeast display flow cytometry, Myc-normalized", "description": "as §1, §2"}, "[17]": {"target": "T15, EGFRvIII amino acid residues 15 to 37 with Met27 to Ala mutation (human)", "T15 construct": "mutation is already in the entry", "T15 sequence (peptide, as listed by the source, change not shown)": "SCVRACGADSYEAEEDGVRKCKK", "experiment": "yeast display flow cytometry, Myc-normalized", "description": "as §1, §2"}, "[18]": {"target": "T16, EGFRvIII amino acid residues 15 to 37 with Lys37 to Ala mutation (human)", "T16 construct": "mutation is already in the entry", "T16 peptide": "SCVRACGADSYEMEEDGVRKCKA", "experiment": "yeast display flow cytometry, Myc-normalized", "description": "as §1, §2"}, "[19]": {"target": "T17, EGFRvIII amino acid residues 15 to 37 with Arg18 to Ala mutation (human)", "T17 construct": "mutation is already in the entry", "T17 peptide": "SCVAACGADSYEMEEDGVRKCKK", "experiment": "yeast display flow cytometry, Myc-normalized", "description": "as §1, §2"}, "[20]": {"target": "T18, EGFRvIII amino acid residues 15 to 37 with Asp23 to Ala mutation (human)", "T18 construct": "mutation is already in the entry", "T18 peptide": "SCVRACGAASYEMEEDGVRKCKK", "experiment": "yeast display flow cytometry, Myc-normalized", "description": "as §1, §2"}, "[21]": {"target": "T19, EGFRvIII amino acid residues 15 to 37 with Glu28 to Ala mutation (human)", "T19 construct": "mutation is already in the entry", "T19 peptide": "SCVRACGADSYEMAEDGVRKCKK", "experiment": "yeast display flow cytometry, Myc-normalized", "description": "as §1, §2"}, "[22]": {"target": "T20, EGFRvIII amino acid residues 15 to 37 with Tyr25 to Ala mutation (human)", "T20 construct": "mutation is already in the entry", "T20 peptide": "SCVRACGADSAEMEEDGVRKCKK", "experiment": "yeast display flow cytometry, Myc-normalized", "description": "as §1, §2"}, "[23]": {"target": "T21, EGFRvIII amino acid residues 15 to 37 with Lys34 to Ala mutation (human)", "T21 construct": "mutation is already in the entry", "T21 peptide": "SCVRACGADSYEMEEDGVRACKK", "experiment": "yeast display flow cytometry, Myc-normalized", "description": "as §1, §2"}, "[24]": {"target": "T22, EGFRvIII amino acid residues 15 to 37 with Ser24 to Ala mutation (human)", "T22 construct": "mutation is already in the entry", "T22 peptide": "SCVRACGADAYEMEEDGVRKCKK", "experiment": "yeast display flow cytometry, Myc-normalized", "description": "as §1, §2"}, "[25]": {"target": "T23, EGFRvIII amino acid residues 15 to 37 with Val17 to Ala mutation (human)", "T23 construct": "mutation is already in the entry", "T23 peptide": "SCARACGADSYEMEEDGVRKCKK", "experiment": "yeast display flow cytometry, Myc-normalized", "description": "as §1, §2"}, "[26]": {"target": "T24, EGFRvIII amino acid residues 15 to 37 with Cys16 to Ala mutation (human)", "T24 construct": "mutation is already in the entry", "T24 peptide": "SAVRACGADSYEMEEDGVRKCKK", "experiment": "yeast display flow cytometry, Myc-normalized", "description": "as §1, §2"}, "[27]": {"target": "T25, EGFRvIII amino acid residues 15 to 37 with Gly21 to Ala mutation (human)", "T25 construct": "mutation is already in the entry", "T25 peptide": "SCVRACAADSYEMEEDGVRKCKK", "experiment": "yeast display flow cytometry, Myc-normalized", "description": "as §1, §2"}, "[28]": {"target": "T26, EGFRvIII amino acid residues 15 to 37 with Glu29 to Ala mutation (human)", "T26 construct": "mutation is already in the entry", "T26 peptide": "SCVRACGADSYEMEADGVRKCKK", "experiment": "yeast display flow cytometry, Myc-normalized", "description": "as §1, §2"}, "[29]": {"target": "T27, EGFRvIII amino acid residues 15 to 37 with Ser15 to Ala mutation (human)", "T27 construct": "mutation is already in the entry", "T27 peptide": "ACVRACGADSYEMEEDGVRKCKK", "experiment": "yeast display flow cytometry, Myc-normalized", "description": "as §1, §2"}, "[30]": {"target": "T8, recombinant human EGFRvIII protein …", "experiment": "ELISA Exp 1, mAb supernatant"}, "[31]": {"target": "T9, recombinant human EGFRvIII protein …", "experiment": "ELISA Exp 1, mAb supernatant"}, "[32]": {"target": "T10, recombinant human wild type EGFR …", "experiment": "ELISA Exp 1, mAb supernatant"}, "[33]": {"target": "T11, recombinant human wild type EGFR …", "experiment": "ELISA Exp 1, mAb supernatant"}},
  "data": [
    {"binder": "B1", "values": [
      {"measurement": "binding result", "setting": "[1]", "value": "no binding (tested: 0-15% of wild-type binding)"},
      {"measurement": "binding result", "setting": "[2]", "value": "no binding (tested: 0-15% of wild-type binding)"},
      {"measurement": "binding result", "setting": "[3]", "value": "no binding (tested: 0-15% of wild-type binding)"},
      {"measurement": "binding result", "setting": "[4]", "value": "no binding (tested: 0-15% of wild-type binding)"},
      {"measurement": "binding result", "setting": "[5]", "value": "no binding (tested: 0-15% of wild-type binding)"},
      {"measurement": "binding result", "setting": "[6]", "value": "no binding (tested: 0-15% of wild-type binding)"},
      {"measurement": "% survival (DM1 secondary-conjugate ADC surrogate assay, vs mouse IgG)", "setting": "[7]", "value": 54, "unit": "%"},
      {"measurement": "% survival (DM1 secondary-conjugate ADC surrogate assay, vs mouse IgG)", "setting": "[8]", "value": "> 98", "unit": "%"},
      {"measurement": "ELISA absorbance 405 nm", "setting": "[9]", "value": 1.53, "unit": "A405"},
      {"measurement": "ELISA absorbance 405 nm", "setting": "[10]", "value": 0.997, "unit": "A405"},
      {"measurement": "ELISA absorbance 405 nm", "setting": "[11]", "value": 1.7, "unit": "A405"},
      {"measurement": "ELISA absorbance 405 nm", "setting": "[12]", "value": 0.001, "unit": "A405"},
      {"measurement": "Kd", "setting": "[13]", "value": 6.7, "unit": "nM"},
      {"measurement": "binding result", "setting": "[14]", "value": "binds"},
      {"measurement": "% of binding vs wild-type fragment 15-37", "setting": "[15]", "value": 110, "unit": "%"},
      {"measurement": "% of binding vs wild-type fragment 15-37", "setting": "[16]", "value": 30.4, "unit": "%"},
      {"measurement": "% of binding vs wild-type fragment 15-37", "setting": "[17]", "value": 102, "unit": "%"},
      {"measurement": "% of binding vs wild-type fragment 15-37", "setting": "[18]", "value": 191, "unit": "%"},
      {"measurement": "% of binding vs wild-type fragment 15-37", "setting": "[19]", "value": 102, "unit": "%"},
      {"measurement": "% of binding vs wild-type fragment 15-37", "setting": "[20]", "value": 58.4, "unit": "%"},
      {"measurement": "% of binding vs wild-type fragment 15-37", "setting": "[21]", "value": 90.9, "unit": "%"},
      {"measurement": "% of binding vs wild-type fragment 15-37", "setting": "[22]", "value": 83.3, "unit": "%"},
      {"measurement": "% of binding vs wild-type fragment 15-37", "setting": "[23]", "value": 130, "unit": "%"},
      {"measurement": "% of binding vs wild-type fragment 15-37", "setting": "[24]", "value": 170, "unit": "%"},
      {"measurement": "% of binding vs wild-type fragment 15-37", "setting": "[25]", "value": 148, "unit": "%"},
      {"measurement": "% of binding vs wild-type fragment 15-37", "setting": "[26]", "value": 176, "unit": "%"},
      {"measurement": "% of binding vs wild-type fragment 15-37", "setting": "[27]", "value": 180, "unit": "%"},
      {"measurement": "% of binding vs wild-type fragment 15-37", "setting": "[28]", "value": 75.3, "unit": "%"},
      {"measurement": "% of binding vs wild-type fragment 15-37", "setting": "[29]", "value": 94.9, "unit": "%"},
      {"measurement": "ELISA absorbance 405 nm", "setting": "[30]", "value": 1.36, "unit": "A405"},
      {"measurement": "ELISA absorbance 405 nm", "setting": "[31]", "value": 1.39, "unit": "A405"},
      {"measurement": "ELISA absorbance 405 nm", "setting": "[32]", "value": 1.62, "unit": "A405"},
      {"measurement": "ELISA absorbance 405 nm", "setting": "[33]", "value": 0.029, "unit": "A405"}
    ]}
  ]
}
